Assay: melting temperature; melt of duplexes
Conditions: sodium 0.0675 M; strand 1 µM

Substance	Tm
CGACGTGCCTCATGTGCTG+CAGCACATAATGCACGTCG ((((((((.(.((((((((+)))))))).).))))))))	48 °C
CGACGTGCCTCATGTGCTG+CAGCACATACAGCACGTCG ((((((((...((((((((+))))))))...))))))))	48.3 °C
CGACGTGCCTCATGTGCTG+CAGCACATACGGCACGTCG (((((((((..((((((((+))))))))..)))))))))	52.4 °C
CGACGTGCCTCATGTGCTG+CAGCACATAGCGCACGTCG ((((((((...((((((((+))))))))...))))))))	49.6 °C
CGACGTGCCTCATGTGCTG+CAGCACATATTGCACGTCG ((((((((...((((((((+))))))))...))))))))	46.7 °C
CGACGTGCCTCATGTGCTG+CAGCACATCCAGCACGTCG ((((((((...((((((((+))))))))...))))))))	47.4 °C
CGACGTGCCTCATGTGCTG+CAGCACATCTAGCACGTCG ((((((((...((((((((+))))))))...))))))))	47.8 °C
CGACGTGCCTCATGTGCTG+CAGCACATGCAGCACGTCG ((((((((..(((((((((+)))))))))..))))))))	52.8 °C
CGACGTGCCTCATGTGCTG+CAGCACATGGGGCACGTCG (((((((((.(((((((((+))))))))).)))))))))	61.2 °C
CGACGTGCCTCATGTGCTG+CAGCACATGTGGCACGTCG (((((((((.(((((((((+))))))))).)))))))))	59.8 °C
CGACGTGCCTCATGTGCTG+CAGCACATGTTGCACGTCG ((((((((..(((((((((+)))))))))..))))))))	52.3 °C
CGACGTGCCTCATGTGCTG+CAGCACATTACGCACGTCG ((((((((.(.((((((((+)))))))).).))))))))	46.4 °C
CGACGTGCCTCATGTGCTG+CAGCACATTAGGCACGTCG ((((((((((.((((((((+)))))))).))))))))))	56.3 °C
CGACGTGCCTCATGTGCTG+CAGCACATTCAGCACGTCG ((((((((...((((((((+))))))))...))))))))	47.9 °C
CGACGTGCCTCATGTGCTG+CAGCACATTCGGCACGTCG (((((((((..((((((((+))))))))..)))))))))	53 °C
CGACGTGCCTCATGTGCTG+CAGCACATTCTGCACGTCG ((((((((...((((((((+))))))))...))))))))	47.1 °C
CGACGTGCCTCATGTGCTG+CAGCACATTTAGCACGTCG ((((((((...((((((((+))))))))...))))))))	47.5 °C
CGACGTGCCTCATGTGCTG+CAGCACATTTCGCACGTCG ((((((((...((((((((+))))))))...))))))))	46.5 °C
CGACGTGCCTGATGTGCTG+CAGCACATAAAGCACGTCG ((((((((.(.((((((((+)))))))).).))))))))	51.7 °C
CGACGTGCCTGATGTGCTG+CAGCACATACAGCACGTCG ((((((((...((((((((+))))))))...))))))))	50.8 °C
CGACGTGCCTGATGTGCTG+CAGCACATACCGCACGTCG ((((((((...((((((((+))))))))...))))))))	48.1 °C
CGACGTGCCTGATGTGCTG+CAGCACATACGGCACGTCG (((((((((..((((((((+))))))))..)))))))))	54.1 °C
CGACGTGCCTGATGTGCTG+CAGCACATAGTGCACGTCG ((((((((...((((((((+))))))))...))))))))	46.5 °C
CGACGTGCCTGATGTGCTG+CAGCACATATCGCACGTCG ((((((((...((((((((+))))))))...))))))))	47.7 °C

Substance	Tm
CGACGTGCCTGATGTGCTG+CAGCACATATGGCACGTCG (((((((((..((((((((+))))))))..)))))))))	55.8 °C
CGACGTGCCTGATGTGCTG+CAGCACATCAGGCACGTCG (((((((((((((((((((+)))))))))))))))))))	65.9 °C
CGACGTGCCTGATGTGCTG+CAGCACATCCCGCACGTCG ((((((((..(((((((((+)))))))))..))))))))	53 °C
CGACGTGCCTGATGTGCTG+CAGCACATCCTGCACGTCG ((((((((..(((((((((+)))))))))..))))))))	53.1 °C
CGACGTGCCTGATGTGCTG+CAGCACATCGTGCACGTCG ((((((((..(((((((((+)))))))))..))))))))	51.4 °C
CGACGTGCCTGATGTGCTG+CAGCACATCTGGCACGTCG (((((((((.(((((((((+))))))))).)))))))))	61.1 °C
CGACGTGCCTGATGTGCTG+CAGCACATGACGCACGTCG ((((((((.(.((((((((+)))))))).).))))))))	44.5 °C
CGACGTGCCTGATGTGCTG+CAGCACATGAGGCACGTCG ((((((((((.((((((((+)))))))).))))))))))	58.5 °C
CGACGTGCCTGATGTGCTG+CAGCACATGATGCACGTCG ((((((((.(.((((((((+)))))))).).))))))))	49.4 °C
CGACGTGCCTGATGTGCTG+CAGCACATGCAGCACGTCG ((((((((...((((((((+))))))))...))))))))	50.4 °C
CGACGTGCCTGATGTGCTG+CAGCACATGCCGCACGTCG ((((((((...((((((((+))))))))...))))))))	47.5 °C
CGACGTGCCTGATGTGCTG+CAGCACATGGAGCACGTCG ((((((((...((((((((+))))))))...))))))))	51.6 °C
CGACGTGCCTGATGTGCTG+CAGCACATTAAGCACGTCG ((((((((.(.((((((((+)))))))).).))))))))	50.8 °C
CGACGTGCCTGATGTGCTG+CAGCACATTACGCACGTCG ((((((((.(.((((((((+)))))))).).))))))))	49 °C
CGACGTGCCTGATGTGCTG+CAGCACATTATGCACGTCG ((((((((.(.((((((((+)))))))).).))))))))	50.2 °C
CGACGTGCCTGATGTGCTG+CAGCACATTCGGCACGTCG (((((((((..((((((((+))))))))..)))))))))	54.7 °C
CGACGTGCCTGATGTGCTG+CAGCACATTGGGCACGTCG (((((((((..((((((((+))))))))..)))))))))	57.1 °C
CGACGTGCCTGATGTGCTG+CAGCACATTTAGCACGTCG ((((((((...((((((((+))))))))...))))))))	49.6 °C
CGACGTGCCTGATGTGCTG+CAGCACATTTCGCACGTCG ((((((((...((((((((+))))))))...))))))))	48.2 °C
CGACGTGCCTGATGTGCTG+CAGCACATTTTGCACGTCG ((((((((...((((((((+))))))))...))))))))	48.8 °C
CGACGTGCCTTATGTGCTG+CAGCACATAACGCACGTCG ((((((((.((((((((((+)))))))))).))))))))	52.2 °C
CGACGTGCCTTATGTGCTG+CAGCACATAATGCACGTCG ((((((((.((((((((((+)))))))))).))))))))	53.7 °C
CGACGTGCCTTATGTGCTG+CAGCACATAGCGCACGTCG ((((((((..(((((((((+)))))))))..))))))))	50.4 °C
CGACGTGCCTTATGTGCTG+CAGCACATATCGCACGTCG ((((((((..(((((((((+)))))))))..))))))))	49.9 °C

Substance	Tm
CGACGTGCCTTATGTGCTG+CAGCACATCATGCACGTCG ((((((((.(.((((((((+)))))))).).))))))))	47.7 °C
CGACGTGCCTTATGTGCTG+CAGCACATCCCGCACGTCG ((((((((...((((((((+))))))))...))))))))	46.8 °C
CGACGTGCCTTATGTGCTG+CAGCACATCCTGCACGTCG ((((((((...((((((((+))))))))...))))))))	47.2 °C
CGACGTGCCTTATGTGCTG+CAGCACATCGAGCACGTCG ((((((((...((((((((+))))))))...))))))))	48.3 °C
CGACGTGCCTTATGTGCTG+CAGCACATCTAGCACGTCG ((((((((...((((((((+))))))))...))))))))	48.1 °C
CGACGTGCCTTATGTGCTG+CAGCACATCTCGCACGTCG ((((((((...((((((((+))))))))...))))))))	46.6 °C
CGACGTGCCTTATGTGCTG+CAGCACATGACGCACGTCG ((((((((.(.((((((((+)))))))).).))))))))	45.4 °C
CGACGTGCCTTATGTGCTG+CAGCACATGATGCACGTCG ((((((((.(.((((((((+)))))))).).))))))))	50.1 °C
CGACGTGCCTTATGTGCTG+CAGCACATGCCGCACGTCG ((((((((...((((((((+))))))))...))))))))	46.9 °C
CGACGTGCCTTATGTGCTG+CAGCACATGCGGCACGTCG (((((((((..((((((((+))))))))..)))))))))	52.3 °C
CGACGTGCCTTATGTGCTG+CAGCACATGGTGCACGTCG ((((((((...((((((((+))))))))...))))))))	46 °C
CGACGTGCCTTATGTGCTG+CAGCACATGTCGCACGTCG ((((((((...((((((((+))))))))...))))))))	47.8 °C
CGACGTGCCTTATGTGCTG+CAGCACATGTGGCACGTCG (((((((((..((((((((+))))))))..)))))))))	54.4 °C
CGACGTGCCTTATGTGCTG+CAGCACATTAAGCACGTCG ((((((((.(.((((((((+)))))))).).))))))))	49.8 °C
CGACGTGCCTTATGTGCTG+CAGCACATTAGGCACGTCG ((((((((((.((((((((+)))))))).))))))))))	58 °C
CGACGTGCCTTATGTGCTG+CAGCACATTGAGCACGTCG ((((((((...((((((((+))))))))...))))))))	49.6 °C
CGACGTGCCTTATGTGCTG+CAGCACATTGCGCACGTCG ((((((((...((((((((+))))))))...))))))))	48.4 °C
CGACGTGCCTTATGTGCTG+CAGCACATTGTGCACGTCG ((((((((...((((((((+))))))))...))))))))	45.7 °C
CGACGTGCGAAATGTGCTG+CAGCACATACCGCACGTCG (((((((((..((((((((+))))))))..)))))))))	53.9 °C
CGACGTGCGAAATGTGCTG+CAGCACATAGAGCACGTCG ((((((((...((((((((+))))))))...))))))))	56.2 °C
CGACGTGCGAAATGTGCTG+CAGCACATAGCGCACGTCG (((((((((..((((((((+))))))))..)))))))))	55.4 °C
CGACGTGCGAAATGTGCTG+CAGCACATAGGGCACGTCG ((((((((...((((((((+))))))))...))))))))	49.9 °C
CGACGTGCGAAATGTGCTG+CAGCACATAGTGCACGTCG ((((((((...((((((((+))))))))...))))))))	46 °C
CGACGTGCGAAATGTGCTG+CAGCACATATAGCACGTCG ((((((((.(.((((((((+)))))))).).))))))))	54.3 °C

— the array DNA melting data of Ke et al.
